Measured values taken from article PMC3990709, “Structural Differences Explain Diverse Functions of Plasmodium Actins” (PLoS Pathogens, 2014).
“And” between values parts separate entries of the source, which are not always exact repeats. Identical values can stand only once.

Target: the molecule itself
Experiment: native gel or EMSA; native PAGE, ATP form, 0.1 mM CaCl2 and 0.5 mM ATP in the running buffer, 277 K; samples 6.7 µM, immediately and 48 h after purification (stored on ice)

B1: Plasmodium falciparum actin I (natural protein)
chain: not shown
notes: actin I of Plasmodium falciparum, PlasmoDB PF3D7_1246200; also called PfActI; Plasmodium actin I; source: Sf21 cells at 300 K, purified (size exclusion chromatography), alone or as a complex with G1
For B1, the “stoichiometry N” value was 4 and 12.
